Molecular target: T1, mouse plasma ApoE (mouse (endogenous in BALB/c plasma), UniProt P08226 19-311)
T1 construct: apolipoprotein E, mouse, band of 36 kDa identified by nano-LC-MS/MS; also called apolipoprotein E; source: endogenous, BALB/c mouse plasma (in vitro) or blood of injected BALB/c mice (in vivo)
T1 sequence (looked up): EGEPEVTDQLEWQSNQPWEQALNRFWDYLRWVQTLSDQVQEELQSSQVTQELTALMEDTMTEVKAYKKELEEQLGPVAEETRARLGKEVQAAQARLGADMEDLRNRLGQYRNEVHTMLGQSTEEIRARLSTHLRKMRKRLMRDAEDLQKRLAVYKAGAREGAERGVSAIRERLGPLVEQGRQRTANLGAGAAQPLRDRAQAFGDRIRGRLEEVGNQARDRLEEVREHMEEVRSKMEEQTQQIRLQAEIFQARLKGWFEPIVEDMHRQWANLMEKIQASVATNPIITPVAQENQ
Test: radioligand binding; SP-sLip (100 μL, 10 mg/mL) with mouse plasma (100 μL) at 37 °C for 1 h, then I-125 rhLRP1 (6 μCi, 0.5 μg) for 1 h at 37 °C; pellet at 19k RCF 30 min, three washes with cold PBS, gamma counter; plain sLip as control
Details: one partner purified

B1: I-125 radiolabeled recombinant human LRP1 Cluster II Fc Chimera, Human IgG1 (Fc fusion, UniProt Q07954 852-1182, looked up)
chain: PQCQPGEFACANSRCIQERWKCDGDNDCLDNSDEAPALCHQHTCPSDRFKCENNRCIPNRWLCDGDNDCGNSEDESNATCSARTCPPNQFSCASGRCIPISWTCDLDDDCGDRSDESASCAYPTCFPLTQFTCNNGRCININWRCDNDNDCGDNSDEAGCSHSCSSTQFKCNSGRCIPEHWTCDGDNDCGDYSDETHANCTNQATRPPGGCHTDEFQCRLDGLCIPLRWRCDGDTDCMDSSDEKSCEGVTHVCDPSVKFGCKDSARCISKAWVCDGDNDCEDNSDEENCESLACRPPSHPCANNTSVCLPPDKLCDGNDDCGDGSDEGELC
modifications: I-125 radiolabel (residues not stated)
notes: Same bought protein as m6, radiolabeled; the labelling method is not described; also called I^125 radiolabeled rhLRP1; radiolabeled rhLRP1; source: bought: R&D system, then I-125 radiolabeled
For B1, the “fold of rhLRP1 absorbed on SP-sLip over plain sLip, after preincubation with mouse plasma” value was 8.4 fold.

Source: article PMC6687821, “Brain-targeted drug delivery by manipulating protein corona functions” (Nature Communications, 2019)
